Measurements taken from paper PMC10659539.
“And” between values parts separate entries of the source, which are not always exact repeats. Equal values may be shown once.

How the values were obtained:
[1] = molecular target: GLT-1, transfected in HEK PS DKO cells (UniProt P31596); assay: native gel or EMSA; Blue Native PAGE of HEK PS DKO cells transfected with GLT-1 and pcDNA3.1-GFP or wildtype PS1, lysed with digitonin 5%; blot with anti-GLT-1
[2] = molecular target: GLT-1, transfected in HEK PS DKO cells (UniProt P31596); assay: cross-linking; living HEK PS DKO cells transfected with GLT-1 and empty vector or wildtype PS1; 50 μM DSS in PBS−/− for 30 min at room temperature, quenched with 20 mM glycine; lysed in 1% NP-40 + 0.1% Triton-X; SDS-PAGE and blot with anti-GLT-1

GLT-1 multimers as percent of total GLT-1, with co-expressed PS1 [1]: 95.6%
GLT-1 multimers as percent of total GLT-1, without PS1 [1]: 89.7%
stoichiometry N [1]: 2 and 3
stoichiometry N [2]: 2 and 3
Substance: GLT-1, transfected in HEK PS DKO cells (from UniProt P31596 1-573) (natural protein)
